Literature values, collected in PMC9222382.
pKd: −log10 of the molar value.

Biological target: IL-10Rα (Homo sapiens) (UniProt Q13651)
Sequence of UniProt Q13651 (Q13651 22-235): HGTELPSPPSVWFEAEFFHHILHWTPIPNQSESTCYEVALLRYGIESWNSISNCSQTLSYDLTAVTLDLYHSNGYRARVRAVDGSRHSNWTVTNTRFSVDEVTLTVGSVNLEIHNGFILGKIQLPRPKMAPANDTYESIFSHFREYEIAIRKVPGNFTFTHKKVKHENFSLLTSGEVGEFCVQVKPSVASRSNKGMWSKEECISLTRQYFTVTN

Q: With IL-10 (from UniProt P22301) as the substance, how does the pKd read?
A: Its pKd is 9.00.
